From patent US20260275288A1 (University of Texas, published 2026)

Columns and labels:
[1] = molecular target: T1, TCR/FcR #2 CD16 extracellular domain (Fc binding domain) comprising polypeptide: WT high affinity CD16 … (human, UniProt P08637 17-254); experiment: flow cytometry; 1 h, 37 °C, complete media, washed (FIGS. 38C-38D)
T1 construct: these cells also carry endogenous CD16; also called TCR/FcR #2 transduced NK cells; uTNK15 and TCR/FcR #2 transduced NK cells

[2] = molecular target: T2, non-transduced (NT) cord blood derived NK cells (endogenous wild type CD16; no CD3/TCR) (human, UniProt P08637 17-254); experiment: as above
T2 construct: whole, on cells; A control cell, not a single protein; for the CD3 engagers the cells are the control without CD3; also called NT NK cells; NT NK
T2 sequence (P08637 17-254): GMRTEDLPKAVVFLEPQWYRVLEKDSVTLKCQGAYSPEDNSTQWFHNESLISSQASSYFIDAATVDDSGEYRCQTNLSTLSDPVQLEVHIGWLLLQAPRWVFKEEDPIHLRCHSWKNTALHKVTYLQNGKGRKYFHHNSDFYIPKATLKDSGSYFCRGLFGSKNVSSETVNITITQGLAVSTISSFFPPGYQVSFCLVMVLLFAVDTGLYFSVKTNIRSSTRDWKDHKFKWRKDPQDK

T1 sequence (P08637 17-254 F176V limits assumed, form in doubt): as the sequence (P08637 17-254) above, with F160V counted along it

- binding percentage (average across 3 trials) [1]: > 80%
- binding percentage (average across 3 trials) [2]: ~70%
B1: Tafasitamab (antibody)
chain 1: EVQLVESGGGLVKPGGSLKLSCAASGYTFTSYVMHWVRQAPGKGLEWIGYINPYNDGTKYNEKFQGRVTISSDKSISTAYMELSSLRSEDTAMYYCARGTYYYGTRVFDYWGQGTLVTVSSASTKGPSVFPLAPSSKSTSGGTAALGCLVKDYFPEPVTVSWNSGALTSGVHTFPAVLQSSGLYSLSSVVTVPSSSLGTQTYICNVNHKPSNTKVDKKVEPKSCDKTHTCPPCPAPELLGGPDVFLFPPKPKDTLMISRTPEVTCVVVDVSHEDPEVQFNWYVDGVEVHNAKTKPREEQFNSTFRVVSVLTVVHQDWLNGKEYKCKVSNKALPAPEEKTISKTKGQPREPQVYTLPPSREEMTKNQVSLTCLVKGFYPSDIAVEWESNGQPENNYKTTPPMLDSDGSFFLYSKLTVDKSRWQQGNVFSCSVMHEALHNHYTQKSLSLSPGK
chain 2: DIVMTQSPATLSLSPGERATLSCRSSKSLQNVNGNTYLYWFQQKPGQSPQLLIYRMSNLNSGVPDRFSGSGSGTEFTLTISSLEPEDFAVYYCMQHLEYPITFGAGTKLEIKRTVAAPSVFIFPPSDEQLKSGTASVVCLLNNFYPREAKVQWKVDNALQSGNSQESVTEQDSKDSTYSLSSTLTLSKADYEKHKVYACEVTHQGLSSPVTKSFNRGEC
